Laboratory results from patent US20230340151A1 (Pfizer, published 2023).

Tests used:
Test in all cases: flow cytometry on cells displaying the construct
[1] = biological target: CID1946 (human GUCY2c point mutant) (human)
[2] = biological target: CID1949 (human GUCY2c point mutant) (human)
[3] = biological target: CID1942 (human GUCY2c point mutant) (human)
[4] = biological target: T1, CID1939 (reverse chimera, chicken GUCY2c with human residues) (chicken/human)
T1 chain: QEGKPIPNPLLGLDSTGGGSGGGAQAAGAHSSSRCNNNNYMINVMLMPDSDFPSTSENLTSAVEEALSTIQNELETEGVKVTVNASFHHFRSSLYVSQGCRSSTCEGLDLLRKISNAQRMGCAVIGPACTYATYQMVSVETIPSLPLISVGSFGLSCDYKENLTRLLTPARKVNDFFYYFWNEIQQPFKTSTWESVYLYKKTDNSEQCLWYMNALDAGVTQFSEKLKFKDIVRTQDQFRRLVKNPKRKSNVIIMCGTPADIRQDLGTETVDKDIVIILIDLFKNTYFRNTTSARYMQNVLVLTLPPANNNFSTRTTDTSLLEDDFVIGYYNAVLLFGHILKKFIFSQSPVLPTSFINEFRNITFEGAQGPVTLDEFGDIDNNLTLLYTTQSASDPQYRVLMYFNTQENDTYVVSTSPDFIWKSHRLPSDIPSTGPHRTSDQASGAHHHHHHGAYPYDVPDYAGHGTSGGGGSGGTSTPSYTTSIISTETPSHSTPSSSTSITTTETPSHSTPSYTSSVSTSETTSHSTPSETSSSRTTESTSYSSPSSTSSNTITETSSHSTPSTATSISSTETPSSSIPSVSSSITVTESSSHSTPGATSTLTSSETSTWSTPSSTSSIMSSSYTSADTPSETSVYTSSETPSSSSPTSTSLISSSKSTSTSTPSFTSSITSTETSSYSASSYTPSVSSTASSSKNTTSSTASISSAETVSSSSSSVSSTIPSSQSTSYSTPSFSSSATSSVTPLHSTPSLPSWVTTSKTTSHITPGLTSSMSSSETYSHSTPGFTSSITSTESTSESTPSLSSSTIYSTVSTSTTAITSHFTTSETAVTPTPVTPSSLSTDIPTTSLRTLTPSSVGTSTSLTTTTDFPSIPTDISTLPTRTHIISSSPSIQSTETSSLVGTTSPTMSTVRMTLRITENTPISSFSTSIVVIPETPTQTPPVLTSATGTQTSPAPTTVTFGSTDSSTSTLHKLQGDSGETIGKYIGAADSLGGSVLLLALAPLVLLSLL

[5] = biological target: T2, CID1881 (human-chicken GUCY2c chimera) (human/chicken)
T2 chain: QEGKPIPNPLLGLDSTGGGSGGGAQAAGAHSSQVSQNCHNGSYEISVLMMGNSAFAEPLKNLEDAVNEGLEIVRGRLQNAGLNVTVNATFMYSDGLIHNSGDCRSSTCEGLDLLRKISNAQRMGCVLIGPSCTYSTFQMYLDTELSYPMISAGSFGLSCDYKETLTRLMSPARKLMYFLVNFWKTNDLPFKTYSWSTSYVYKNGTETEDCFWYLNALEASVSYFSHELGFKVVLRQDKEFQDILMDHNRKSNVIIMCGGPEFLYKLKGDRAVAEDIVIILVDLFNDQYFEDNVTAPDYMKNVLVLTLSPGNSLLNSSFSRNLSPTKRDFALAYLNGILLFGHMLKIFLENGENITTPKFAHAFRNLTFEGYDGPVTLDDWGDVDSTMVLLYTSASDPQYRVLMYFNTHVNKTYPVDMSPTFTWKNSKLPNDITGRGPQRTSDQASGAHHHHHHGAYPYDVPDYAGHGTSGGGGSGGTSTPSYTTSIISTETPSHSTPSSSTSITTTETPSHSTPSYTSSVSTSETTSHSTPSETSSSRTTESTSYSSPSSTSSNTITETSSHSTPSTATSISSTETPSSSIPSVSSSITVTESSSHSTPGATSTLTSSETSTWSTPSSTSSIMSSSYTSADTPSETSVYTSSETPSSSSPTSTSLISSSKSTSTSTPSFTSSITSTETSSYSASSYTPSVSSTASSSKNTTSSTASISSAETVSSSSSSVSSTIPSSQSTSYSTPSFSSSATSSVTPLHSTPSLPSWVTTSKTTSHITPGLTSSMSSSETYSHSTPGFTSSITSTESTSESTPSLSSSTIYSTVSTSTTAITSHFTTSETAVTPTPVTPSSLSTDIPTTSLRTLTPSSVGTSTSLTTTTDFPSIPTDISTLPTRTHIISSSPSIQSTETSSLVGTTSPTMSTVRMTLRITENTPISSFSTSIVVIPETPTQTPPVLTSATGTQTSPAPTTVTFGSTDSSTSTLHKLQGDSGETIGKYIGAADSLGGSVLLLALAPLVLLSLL

[6] = biological target: CID1947 (human GUCY2c point mutant) (human)

Measured: binding result

B1: GUCY2C-1608 (bispecific antibody)
chain 1: DIQLTQSPSSLSASVGDRVTITCRASESVDYYGSSLLQWYQQKPGKAPKLLIYAASKLASGVPSRFSGSGSGTDFTLTISSLQPEDFATYYCQQTRKAYTFGQGTKLEIKGGGSGGGGEVQLVESGGGLVQPGGSLRLSCAASGFTFSDYYMTWVRQAPGKGLEWVAFIRNQARGYTSDHNPSVKGRFTISRDNAKNSLYLQMNSLRAEDTAVYYCARDRPSYYVLDYWGQGTTVTVSSGCPPCPAPEAAGAPSVFLFPPKPKDTLMISRTPEVTCVVVDVSHEDPEVKFNWYVDGVEVHNAKTKPREEQYNSTYRVVSVLTVLHQDWLNGKEYKCKVSNKALPAPIEKTISKAKGQPREPQVCTLPPSREEMTKNQVSLWCLVKGFYPSDIAVEWESNGQPENNYKTTPPVLDSDGSFFLYSKLTVDKSRWQQGNVFSCSVMHEALHNHYTQKSLSLSPG
chain 2: DIQMTQSPSSLSASVGDRVTITCTSSQSLFNVRSQKNYLAWYQQKPGKAPKLLIYWASTRESGVPSRFSGSGSGTDFTLTISSLQPEDFATYYCKQSYDLFTFGGGTKVEIKGGGGSGGGGEVQLVESGGGLVQPGGSLRLSCAASGFTFSSYWMHWVRQAPGKGLEWIGEIKPSNELTNVHEKFKDRFTISVDKAKNSAYLQMNSLRAEDTAVYYCTRTITTTEGYWFFDVWGQGTLVTVSSGCPPCPAPEAAGAPSVFLFPPKPKDTLMISRTPEVTCVVVDVSHEDPEVKFNWYVDGVEVHNAKTKPREEQYNSTYRVVSVLTVLHQDWLNGKEYKCKVSNKALPAPIEKTISKAKGQPREPQVYTLPPCREEMTKNQVSLSCAVKGFYPSDIAVEWESNGQPENNYKTTPPVLDSDGSFFLVSKLTVDKSRWQQGNVFSCSVMHEALHNHYTQKSLSLSPG
notes: also called GUCY2c CD3 bispecific
binds: all assays above
